The test system of this series is FMDV 3D polymerase wild type (Foot-and-mouth disease virus C-S8c1?). The series can be described thus: EMSA.

In turn, “heteropolymeric RNA template-primer of the RNA binding assay” came in with a binding signal (% RNA retarded) of 62.
